US11906524B2, “Urea biosensors and uses thereof” (Duke University, priority 2015, dated 2024)

Experiment: Urea titration of emission intensity spectra (Nanodrop3300) with ratiometric analysis, singly labeled conjugates
Assay type: binding
Text: Determination of emission intensity spectra.
Ratiometric analysis of urea binding. […] 2
For a single urea-binding site, the fractional saturation is given by
[formula] where [L] is the ligand (urea) concentration and Kd the dissociation constant, ^trueKd for ytrue.
[formula] where ^appIλ2 and ^satIλ2 are the emission intensities of the monochromatic signal at wavelength λ2 of the ligand-free and ligand-bound protein, respectively.

[1] = mutation in the csUBP7 186C·Acrylodan conjugate

Row | Molecule | effect of mutation on urea affinity [1] | further results
1 | Oregon Green | – | monochromatic intensity change (fluorophore conjugated to csUBP7 186C variant with Q114A, increase on urea): ~2 fold; Kd (fluorophore conjugated to csUBP7 186C, Q114A, fit of equation 1 to the monochromatic emission intensities, Nanodrop3300, read-out: trueKd (urea)): 300 µM
2 | Texas Red | – | trueKd (urea) (fluorophore conjugated to csUBP7 186C, Q114A, fit of equation 1 to the monochromatic emission intensities, Nanodrop3300): n/b
3 | N211A: csUBP7 186C, 211A mutant (SEQ ID NO: 82), tested as Acrylodan conjugate (conjugate, Acrylodan conjugate; csUBP7_186C.28 (186C, 211A substitution mutant, signal peptide replaced with M and a GGSHHHHHH at C-terminus, and also comprising a C89A substitution)) MSSSESEKEKSEETIKVGILHSLSGTMSISEVSLKDAELMAIEEINNNGGVLGKKLEPIVEDGASDWPTFAEKAKKLLQKDKVAVIFGAWTSASRKAVLPVVEENNGLLFYPVQYEGLESSPNIFYMGAAPNQQIVPAVKWLFDNGKKRFYLLGSDYVFPRTANKIIKAYLKYLGGVVVGEEYTPCGHTDYSSVINKIKAAKPDVVFNTLAGDSNVAFFKQLKDAGIDANTLPVMSVSIAEEEIKGIGPEYLKGHLVTWNYFQSVDTPENKEFVEKYKKKYGEDRVTDDPIEAAYIGVYLWAKAVEKAGSTDVDKVREAAKGIEFNAPEGPVKIDGDNQHLYKTVRIGEILENGQIRELWKTNKPVKPDPYLKGYEWAQGLSEQGGSHHHHHH | nearly abolishes binding | –
4 | Q114E: csUBP7 186C, 114E mutant (SEQ ID NO: 76), tested as Acrylodan conjugate (conjugate, Acrylodan conjugate; csUBP7_186C.22 (186C, 114E substitution mutant, signal peptide replaced with M and a GGSHHHHHH at C-terminus, and also comprising a C89A substitution)) MSSSESEKEKSEETIKVGILHSLSGTMSISEVSLKDAELMAIEEINNNGGVLGKKLEPIVEDGASDWPTFAEKAKKLLQKDKVAVIFGAWTSASRKAVLPVVEENNGLLFYPVEYEGLESSPNIFYMGAAPNQQIVPAVKWLFDNGKKRFYLLGSDYVFPRTANKIIKAYLKYLGGVVVGEEYTPCGHTDYSSVINKIKAAKPDVVFNTLNGDSNVAFFKQLKDAGIDANTLPVMSVSIAEEEIKGIGPEYLKGHLVTWNYFQSVDTPENKEFVEKYKKKYGEDRVTDDPIEAAYIGVYLWAKAVEKAGSTDVDKVREAAKGIEFNAPEGPVKIDGDNQHLYKTVRIGEILENGQIRELWKTNKPVKPDPYLKGYEWAQGLSEQGGSHHHHHH | improves binding by an order of magnitude | –
5 | S92A: csUBP7 186C, S92A mutant (SEQ ID NO: 65), tested as Acrylodan conjugate (conjugate, Acrylodan conjugate; csUBP7_186C.11 (186C, S92A substitution mutant, signal peptide replaced with M and a GGSHHHHHH at C-terminus, and also comprising a C89A substitution)) MSSSESEKEKSEETIKVGILHSLSGTMSISEVSLKDAELMAIEEINNNGGVLGKKLEPIVEDGASDWPTFAEKAKKLLQKDKVAVIFGAWTAASRKAVLPVVEENNGLLFYPVQYEGLESSPNIFYMGAAPNQQIVPAVKWLFDNGKKRFYLLGSDYVFPRTANKIIKAYLKYLGGVVVGEEYTPCGHTDYSSVINKIKAAKPDVVFNTLNGDSNVAFFKQLKDAGIDANTLPVMSVSIAEEEIKGIGPEYLKGHLVTWNYFQSVDTPENKEFVEKYKKKYGEDRVTDDPIEAAYIGVYLWAKAVEKAGSTDVDKVREAAKGIEFNAPEGPVKIDGDNQHLYKTVRIGEILENGQIRELWKTNKPVKPDPYLKGYEWAQGLSEQGGSHHHHHH | abolishes binding | –
6 | V113T: csUBP7 186C, 113T mutant (SEQ ID NO: 70), tested as Acrylodan conjugate (conjugate, Acrylodan conjugate; csUBP7_186C.16 (186C, 113T substitution mutant, signal peptide replaced with M and a GGSHHHHHH at C-terminus, and also comprising a C89A substitution)) MSSSESEKEKSEETIKVGILHSLSGTMSISEVSLKDAELMAIEEINNNGGVLGKKLEPIVEDGASDWPTFAEKAKKLLQKDKVAVIFGAWTSASRKAVLPVVEENNGLLFYPTQYEGLESSPNIFYMGAAPNQQIVPAVKWLFDNGKKRFYLLGSDYVFPRTANKIIKAYLKYLGGVVVGEEYTPCGHTDYSSVINKIKAAKPDVVFNTLNGDSNVAFFKQLKDAGIDANTLPVMSVSIAEEEIKGIGPEYLKGHLVTWNYFQSVDTPENKEFVEKYKKKYGEDRVTDDPIEAAYIGVYLWAKAVEKAGSTDVDKVREAAKGIEFNAPEGPVKIDGDNQHLYKTVRIGEILENGQIRELWKTNKPVKPDPYLKGYEWAQGLSEQGGSHHHHHH | only a small effect | –
7 | N211E: csUBP7 186C, 211E mutant (SEQ ID NO: 86), tested as Acrylodan conjugate (conjugate, Acrylodan conjugate; csUBP7_186C.32 (186C, 211E substitution mutant, signal peptide replaced with M and a GGSHHHHHH at C-terminus, and also comprising a C89A substitution)) MSSSESEKEKSEETIKVGILHSLSGTMSISEVSLKDAELMAIEEINNNGGVLGKKLEPIVEDGASDWPTFAEKAKKLLQKDKVAVIFGAWTSASRKAVLPVVEENNGLLFYPVQYEGLESSPNIFYMGAAPNQQIVPAVKWLFDNGKKRFYLLGSDYVFPRTANKIIKAYLKYLGGVVVGEEYTPCGHTDYSSVINKIKAAKPDVVFNTLEGDSNVAFFKQLKDAGIDANTLPVMSVSIAEEEIKGIGPEYLKGHLVTWNYFQSVDTPENKEFVEKYKKKYGEDRVTDDPIEAAYIGVYLWAKAVEKAGSTDVDKVREAAKGIEFNAPEGPVKIDGDNQHLYKTVRIGEILENGQIRELWKTNKPVKPDPYLKGYEWAQGLSEQGGSHHHHHH | weakens affinity | –
8 | V113A: csUBP7 186C, 113A mutant (SEQ ID NO: 69), tested as Acrylodan conjugate (conjugate, Acrylodan conjugate; csUBP7_186C.15 (186C, 113A substitution mutant, signal peptide replaced with M and a GGSHHHHHH at C-terminus, and also comprising a C89A substitution)) MSSSESEKEKSEETIKVGILHSLSGTMSISEVSLKDAELMAIEEINNNGGVLGKKLEPIVEDGASDWPTFAEKAKKLLQKDKVAVIFGAWTSASRKAVLPVVEENNGLLFYPAQYEGLESSPNIFYMGAAPNQQIVPAVKWLFDNGKKRFYLLGSDYVFPRTANKIIKAYLKYLGGVVVGEEYTPCGHTDYSSVINKIKAAKPDVVFNTLNGDSNVAFFKQLKDAGIDANTLPVMSVSIAEEEIKGIGPEYLKGHLVTWNYFQSVDTPENKEFVEKYKKKYGEDRVTDDPIEAAYIGVYLWAKAVEKAGSTDVDKVREAAKGIEFNAPEGPVKIDGDNQHLYKTVRIGEILENGQIRELWKTNKPVKPDPYLKGYEWAQGLSEQGGSHHHHHH | weakens binding significantly | –
9 | V113Q: csUBP7 186C, 113Q mutant (SEQ ID NO: 72), tested as Acrylodan conjugate (conjugate, Acrylodan conjugate; csUBP7_186C.18 (186C, 113Q substitution mutant, signal peptide replaced with M and a GGSHHHHHH at C-terminus, and also comprising a C89A substitution)) MSSSESEKEKSEETIKVGILHSLSGTMSISEVSLKDAELMAIEEINNNGGVLGKKLEPIVEDGASDWPTFAEKAKKLLQKDKVAVIFGAWTSASRKAVLPVVEENNGLLFYPQQYEGLESSPNIFYMGAAPNQQIVPAVKWLFDNGKKRFYLLGSDYVFPRTANKIIKAYLKYLGGVVVGEEYTPCGHTDYSSVINKIKAAKPDVVFNTLNGDSNVAFFKQLKDAGIDANTLPVMSVSIAEEEIKGIGPEYLKGHLVTWNYFQSVDTPENKEFVEKYKKKYGEDRVTDDPIEAAYIGVYLWAKAVEKAGSTDVDKVREAAKGIEFNAPEGPVKIDGDNQHLYKTVRIGEILENGQIRELWKTNKPVKPDPYLKGYEWAQGLSEQGGSHHHHHH | – | fold stronger affinity than either V113N or V113H [1]: 10 fold
